Results reported in patent US20170157212.

Test system: purified recombinant CRIF1

**Q.** Which “CDK12-mediated phosphorylation of the human GST-CTD substrate in vitro (immunoblot, CTD-Ser2P)” value does the source give for HA-tagged full-length human CDK12 here?
**A.** recombinant CRIF1 potently inhibited CDK12-mediated phosphorylation of the human GST-CTD substrate in vitro, in a dose-dependent manner

**Q.** And the “S65 and T70 phosphorylation of recombinant 4E-BP1 in vitro (reactions with CDK12 and mTORC1/Raptor)” value?
**A.** rCRIF1 potently and selectively inhibited S65 and T70 phosphorylation of 4E-BP1 in vitro, in a dose-dependent manner, without affecting phosphorylation of the T37/46 sites by mTORC1
